Results taken from the supplement of paper PMC9170038.

Tested on: K4 kissing-loop RNA reporter
Assay: apparent KD of K4 kissing-loop reporter; higher = weaker reporter binding
Settings: Eterna round: R107
Procedure: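 RNA-MaP round R107: designed RNA switches with theophylline, tryptophan, arginine or FMN aptamers are transcribed on-chip within common flanks. They are titrated with a labelled K4 kissing-loop RNA reporter in RNA-MaP buffer (100 mM Tris pH 7.5, 80 mM KCl, 4 mM MgCl2), without ligand or with the indicated ligand. Median apparent KD per design.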

[1] = input ligand: theophylline 20 uM
[2] = input ligand: tryptophan 2.4 mM
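Also: bound reporter read as fluorescence of individual clusters on recovered sequencing chips by microscopy, with normalized cluster intensities fitted with a binding model.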

| Sequence | apparent KD of K4 kissing-loop reporter (input ligand: FMN 200 uM) [nM] | apparent KD of K4 kissing-loop reporter (input ligand: arginine 13.2 mM) [nM] | apparent KD of K4 kissing-loop reporter (input ligand: none) [nM] | apparent KD of K4 kissing-loop reporter [1] [nM] | apparent KD of K4 kissing-loop reporter [2] [nM] |
| --- | --- | --- | --- | --- | --- |
| CGCAGUGAUGUUGCUAUUGUUCUUGGUUAACGAGGACCGGUACGGCCGCCACUCGAUGUCUGUCUAGUCCAGUGUUUUUUUGAGU [whbob_EX_Tryp_A_t9] | 513 | 493 | 592 | 571 | 310 |
| CGCCACGACUGAAGGAGCGCGCCAGUGAUGUUGGACGGCUUUGUCAAGGAAACUGCACCGGUGCAGGUAGGUCGCAGUUCGUGGU [Quisbiri] | 398 | 421 | 537 | 588 | 362 |
| CGCCGCAAGGCGAGCGCUCCCACUCCGGAAGGAGCGCCCGCAAGGGCAGGUAGGUCGCCGGAGUGAUGUUCCGGUGGAGGGCUCG [#2 Exclusion - Arginine A Attempt #15 (Inspired by Omei)] | 395 | 207 | 376 | 222 | 439 |
| CGCCGUAAGGCGGUCGCUCCCACUCCGGAAGGAGCGCCCGCAAGGGCAGGUAGGUCGCCGGAGUGAUGUUCCGGUGGAGGGACCG [#2 Exclusion - Arginine A Attempt #7 (Inspired by Omei)] | 207 | 161 | 260 | 216 | 186 |
| CGCGCGCGCCGCAAGGCGCGCGCGAACGAUACCAGUAUAUAAGAAUACCCUUGGCAGCGUAAGAAAGCUAUAGUGAUGUUGUAGA [#19 K4 Theophylline A Same State] | 254 | 121 | 226 | 265 | 273 |
| CGGAACGCAUCGGCCGCCACUUUUAUCUGCAGUGAUGUUGCAGUAUCCGAGCAAGGCUGUUGUGAAAGGACCGGGAUGGUCCGUU [Tibeberi] | 87.5 | 96.6 | 92.7 | 97.4 | 143 |
| CGGUUAUAGCAGGAUACCAGUACCCAUUAUGUACGUUUAUAGUAGAGUGAUGUUCUAAAGUACCCUUGGCAGCUUCCCGUGACCC [#23 K4 Theophylline B Exclusion] | 150 | 199 | 168 | 265 | 127 |
| CGUGAGGACCUGAGGUGAUGUAUAGUAUCGCGAGGACCGGUACGGCCGCCACUCGUGAAGAGAAAGGAGUGAUGUUCCGUAAGGG | 474 | 470 | 470 | 677 | 138 |
| CGUGAGUGAUGUUCACGAGGCUUGUUUCUAGAGGAUAUUCACUUUAGAAGAAGGCUAGAGAUCUAUAUCGUGAUGCUCGAUAACG [FMN A Ex t1] | 295 | 247 | 197 | 260 | 155 |
| CGUGCCCAGCCGGAUACCAGUGACCCGCUGGGAACCGCGGGCCCAGAGUGAUGUUCGGGACACCCUUGGCAGCCGCCUGGGCGGG [#2 Same State - Theophylline B Attempt #15 (HarryS)] | 1020 | 392 | 1100 | 512 | 453 |
| CGUUCCUCUGUCGAUACCAGCUUCAGUUGGCGGCCAGUGAUGUUGGUAUCGCCGAUGCCAAGCCCUUGGCAGCGACAUGAGAACC [Uslaessobi] | 200 | 166 | 166 | 105 | 172 |
| CGUUUAUUGCAGGAUACCAGUACCCAUUAUGUACGUUUAUAGUAGAGUGAUGUUCUAAAGUACCCUUGGCAGCUUCCCGUGACCC [#22 K4 Theophylline B Exclusion] | 119 | 193 | 142 | 188 | 90.3 |
| CUAUAAGUGCCGAGUGAUGUUCGGCCAAUACGAGGACCGGUACGGCCGCCACUCGGUCAGUGAGUGCCCACCGGGCGUGGCUGAC [Leedgeis] | 261 | 225 | 209 | 253 | 124 |
| CUAUGGAAACAUAGUAAUCGGGAAACCGAUACCAGUAUGGAAACAUACCCUUGGCAGCGGAAUGAUUAAACGGAGUGAUGUUCCG [Theophylline A K4 17] | 354 | 243 | 285 | 237 | 261 |
| CUCACAGUGAUGUUGUGGGCCGAGAGUGAUACCAGCCGUAUUUGUGGCCCUUGGCAGCGCAGAACCAGUGAUGUUGGUUACUUGG [Same State Theophylline A GF 23] | 229 | 286 | 271 | 277 | 238 |
| CUGACCAACAGCGAUACCAGUGUGGAGUGAUGUUCCCUGGUCCGGGCUGAUGUUCCCUUGCGCCCUUGGCAGCGCAGAAGCAGGU [Exclusion Theophylline B GF 13] | 433 | 295 | 359 | 349 | 338 |
| CUGAGCUGCAGCGAUACCAGUGUGGAGUGAUGUUCCCUGGUCCGGGCUGUUGUUCCCUUGCGCCCUUGGCAGCGCAGGAGCAGGG [Exclusion Theophylline B GF 15] | 506 | 352 | 422 | 378 | 383 |
| CUUAGGAGUGGUGUUGAUUAGGGAGCGGAAGGAGCGCCAAUGAUGGCAGGUAGGUCGCCGGAAUGUAGUGAUGUUGCAUAGAGGG [ExArgA.S] | 476 | 225 | 415 | 236 | 267 |
| CUUCUCCUUCCAAUCUCGGCCAACACGGGACGAGGACCGGUACGGCCGCCACUCGUGCAGUGAUGUUGCACGAUGGUGACGGAGA [Queronmaan] | 95.7 | 87.6 | 94.2 | 86.9 | 217 |
| GAAAGAAAGAAUGAUACCAGACACCCGAGUGAUGUUCGGAGCAGAGUGAUGUUCUAAUAAGUCCCUUGGCAGCAUAAAAGAAAAG [Same State Theophylline B GF 1] | 240 | 256 | 322 | 331 | 246 |
| GACAUCUAUCGCCGAUAGUGUUUAUCUUGGGAGGAUAUGUCAGCGGACAGAAGGCCCAGUGAUGUUGGGUAGAUGACCGUUGCCU [Orerditi] | 337 | 123 | 131 | 131 | 128 |
| GACGGGCAGUGAUGUUGCCGGUCUCUUGGACGAGGACCGGUACGGCCGCCACUCGAUCUGAUGCAAGAAUCGCAUCUUUUAAUAA [Biququan] | 151 | 103 | 166 | 312 | 273 |

| Sequence | apparent KD of K4 kissing-loop reporter (input ligand: FMN 200 uM) [nM] | apparent KD of K4 kissing-loop reporter (input ligand: arginine 13.2 mM) [nM] | apparent KD of K4 kissing-loop reporter (input ligand: none) [nM] | apparent KD of K4 kissing-loop reporter [1] [nM] | apparent KD of K4 kissing-loop reporter [2] [nM] |
| --- | --- | --- | --- | --- | --- |
| GACUCAUGUAGAAGGAGCGUCAGAAGUUAUAGACAUGAGUGAUGUUCAUGUUAGCUGAUUUGACAGGUAGGUCGCUACAGCAGGA [KL-SSArg B16 #analogue] | 126 | 100 | 126 | 114 | 121 |
| GAGAUAGAGGCGGCCGCCACUAGUGAUGUUAGUGAUGUUAGAAAGAGAAUAGAACAGGGAUUUGAUAGGACCGGGCCAGAUGGAG [wwemullin] | 57.6 | 51.3 | 48.9 | 48.7 | 63 |
| GAGCCAACCGUCGAUACCAGCCGCACGUCAUUCACUCAAUGCUGAGGAGCCAGUGAUGUUGGCCCUUGGCAGCGAAGCAACGAUC [theeternabot_exclusion_KL_Theo_B_43] | 97.5 | 91.8 | 93.5 | 93.5 | 93.2 |
| GAGUCGGCACAAGGAUAUAGGUGUAGUGAUGUUAUGUCUCCUUGACUCACUCGUUACCCUCAACGUCUAGAAGGUGUGAAUGCAG [theeternabot_exclusion_KL_FMN_B_46] | 328 | 240 | 290 | 229 | 251 |
| GAUAUAGUGAUGUUAUAUACUGAUAGACAACGAGGACCGGUACGGCCGCCACUCGAGAGGGUGAAAAUGAUGAUAAAAUAAUAAU [#01 K4 Tryptophan A Exclusion] | 341 | 283 | 341 | 374 | 269 |
| GAUCCAUGACAAGGAUAUUCGCCAACGGUGCCGGAGUGAUGUUCUGCACAACAGACUACAAGUAAGGAAGAAGGUGUCAGUUACC [theeternabot_sameState_KL_FMN_B_29] | 595 | 843 | 946 | 609 | 561 |
| GAUGAUCGCGCGGCCGCCACUGGUCAGUGAUGUUGACAUUAAUGCGCCGAGUAGUAACGGCGCAGCAGGACCGGGCGCGAUGUAG [#12 K4 Tryptophan B Same State] | 144 | 141 | 145 | 121 | 163 |
| GAUUCCCAAGCGGCCGCCACUUAUAGUGAUGUUAUAGGGACUGCGGAUCAGGACAAUCAUACAUAAAGGACCGGGCUAUUCUGAC [theeternabot_exclusion_KL_Trp_B_1] | 264 | 246 | 305 | 255 | 261 |
| GCAAAACUCAGUGAUGUUGAGAUAUCGGAAGGAGCGCGUGAAAACGCAGGUAGGUCGCCGAUUCAAUGAGUUUCUCGUUGUUUGC [Arginine A K4 20] | 248 | 305 | 318 | 303 | 288 |
| GCAGUGAUGUUGCACGAGUAGGCUGGAGUACGAGGACCGGUACGGCCGCCACUCGUACGAAAGUCGCUAAUUUAUGGAAUGGUGA [#07 K4 Tryptophan A Same State] | 650 | 623 | 668 | 602 | 467 |
| GCAGUGAUGUUGCUGAUGUACAGUGGGAUACGAGGACCGGUACGGCCGCCACUCGUACAGAAUUUGUUAAUACAUCGAUAAGUGA [XV] | 377 | 360 | 526 | 436 | 522 |
| GCAGUGAUGUUGCUGGUGUGCAGUGGUAGUCGAGGACCGGUACGGCCGCCACUCGGUGAGAACCUGCUAAUACAUCGAUAAGUGA [XVIII] | 550 | 369 | 738 | 463 | 558 |
| GCAUAGGCCCAUCGGAAUUCGAGACCAGCACGAGGACCGGUACGGCCGCCACUCGUGCAGUGAUGUUGCACGAUUGGGAAACCGC [Beanveceti] | 115 | 100 | 101 | 104 | 111 |
| GCAUCCGAUGCAGGAUAUAGAUGAACGAGUGAUGUUUGGAAUUUAUGUCCAAAGCCUACGAUCAAACUAGAAGGGCAUCGGAUGC | 334 | 266 | 161 | 167 | 192 |
| GCAUGUAUGCGAGAGUGAUGUUCAUGGUUUCGAGGACCGGUACGGCCGCCACUCGCGAUCCGGCGUACAAUCGUGAAGUUAUCAU [theeternabot_sameState_KL_Trp_A_42] | 736 | 469 | 655 | 542 | 672 |
| GCCAGAGCGCGAAGGAGCGCCGUGACAGGUUACUGCCUUGGGCAGUGAUGUUGCUCAAUCUGGCAGGUAGGUCGCGUGCUCUGGC | 179 | 185 | 215 | 202 | 168 |
| GCCGUACGCAUGGAUACCAGCAUUUAUGACACACUGCUAGUGAUGUUAGCUAUGCGUAUAUGCCCUUGGCAGCCAUGCGUACGGC | 150 | 128 | 140 | 87.4 | 133 |
| GCCGUACGCAUGGAUACCAGUCUUAGAGUGAUGUUCUAAACGAUUGCGCCUGGAUCAAUGGACCCUUGGCAGCCAUGCGUACGGC | 130 | 119 | 129 | 92.4 | 154 |
| GCCGUAGAUGGAAGGAGCGACUUCAGCGGAUAAACGUGACAAUUGGAGUGAUGUUCGCAAGGUCAGGUAGGUCGCCAUCUACGGC | 819 | 211 | 260 | 274 | 313 |
| GCCGUAGAUGGAAGGAGCGUGAUAAGUGAAUUAUCCAGUGAUGUUGGAUCUUAGAUAGGAUCACAGGUAGGUCGCCAUCUACGGC | 244 | 181 | 217 | 297 | 192 |
| GCCGUAGAUUGAAGGAGCGGUAUGGGCGUUGGCUGAGUGAUGUUCAGGAAAAGUGGCUUCUACCAGGUAGGUCGCAAUCUACGGC | 133 | 110 | 130 | 139 | 109 |
